Reference: US20200165613, “VIRUS LIKE PARTICLE” (The University of Leeds, published 2020)

Key:
[1] = target: T1, STNV coat protein wild-type (Satellite tobacco necrosis virus 1) (UniProt P03606); settings: QELS after SEC; Rh 9.1 nm
T1 sequence: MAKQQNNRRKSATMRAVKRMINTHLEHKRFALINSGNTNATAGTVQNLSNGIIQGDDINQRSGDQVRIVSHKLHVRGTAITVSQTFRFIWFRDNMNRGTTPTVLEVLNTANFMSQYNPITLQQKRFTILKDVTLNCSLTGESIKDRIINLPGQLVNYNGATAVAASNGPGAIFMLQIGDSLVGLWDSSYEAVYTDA

[2] = target: T2, STNV coat protein wild-type (Satellite tobacco necrosis virus 1, UniProt P03606 P03606:1-196); assay: smFCS; Rh collapse 20-30% then cooperative T=1 assembly; settings: chain copies: trimeric capsomer / T=1 capsid; label: 5' Alexa Fluor 488; five stem-loops
T2 sequence: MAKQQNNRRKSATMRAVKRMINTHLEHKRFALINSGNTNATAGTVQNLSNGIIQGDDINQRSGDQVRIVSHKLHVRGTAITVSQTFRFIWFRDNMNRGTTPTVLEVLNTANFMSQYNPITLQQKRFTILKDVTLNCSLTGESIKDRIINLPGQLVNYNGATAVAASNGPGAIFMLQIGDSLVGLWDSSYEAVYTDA

[3] = target: T2, STNV coat protein wild-type; assay: competition; unlabelled B3 displaces AF488-B3 at 100-fold excess; settings: chain copies: trimeric capsomer / T=1 capsid; stem-loop
[4] = target: T2, STNV coat protein wild-type; assay: competition; competes; forms T=1; text states low nanomolar affinity for AUUA; settings: chain copies: trimeric capsomer / T=1 capsid; stem-loop
[5] = target: T2, STNV coat protein wild-type; assay: competition; competes with B3; T=1 peak in svAUC; settings: chain copies: trimeric capsomer / T=1 capsid; stem-loop
[6] = target: T2, STNV coat protein wild-type; assay: svAUC; T=1 capsids with similar efficiency to PS3; 2 mM Ca2+; settings: chain copies: trimeric capsomer / T=1 capsid; stem-loop
[7] = target: T2, STNV coat protein wild-type; assay: smFCS; best assembly substrate; settings: chain copies: trimeric capsomer / T=1 capsid; label: 5' Alexa Fluor 488; five stem-loops
[8] = target: T2, STNV coat protein wild-type; assay: smFCS; T=1 at lower CP than wild-type 127-mer; settings: chain copies: trimeric capsomer / T=1 capsid; label: 5' Alexa Fluor 488; five stem-loops
[9] = target: T2, STNV coat protein wild-type; assay: smFCS; T=1 but cooperativity lost; settings: chain copies: trimeric capsomer / T=1 capsid; label: 5' Alexa Fluor 488
[10] = target: T2, STNV coat protein wild-type; assay: smFCS; more efficient than wild-type 127-mer; settings: chain copies: trimeric capsomer / T=1 capsid; label: 5' Alexa Fluor 488; five stem-loops

Molecule: STNV-1 genome
- activity (% relative VLP yield) [1]: 80

B1: STNV-1 PS1-5 127-mer (ssRNA)
RNA: GAGUAAAGACAGGAAACUUUACUGACUAACAUGGCAAAACAACAGAACAACAGGCGAAAAUCCGCAACAAUGCGUGCAGUGAAGCGCAUGAUAAAUACACACUUGGAGCAUAAAAGGUUUGCACUGA
- binding result [2]: binds

B2: B3 short / PS3 ACAA (ssRNA)
RNA: ACAUGCAACAAUGCACAC
- binding result [3]: binds

B3: B3 AUUA (ssRNA)
RNA: ACAUGCAAUUAUGCACAC
- binding result [4]: binds

B4: B3 UUUA (ssRNA)
RNA: ACAUGCAUUUAUGCACAC
- binding result [5]: binds

B5: B3 AAAA (ssRNA)
RNA: ACAUGCAAAAAUGCACAC
- binding result [6]: binds

B6: B3 AGGA (ssRNA)
RNA: ACAUGCAAGGAUGCACAC
- binding result [6]: binds

B7: B3 AUGA (ssRNA)
RNA: ACAUGCAAUGAUGCACAC
- binding result [6]: binds

B8: B3 AGUA (ssRNA)
RNA: ACAUGCAAGUAUGCACAC
- binding result [6]: binds

B9: Synthetic, stabilised PS1-5 (ssRNA)
RNA: GGGCUGCCCUCAAGGACCAGGGCAGAAAAGAGGAAAAGAAAAGUGACAGAACACUUAUAAGGAAAAAACGUACAAACGUUUUAAGGAAAAAAGGAAGCUGCAAUAGCGCAAGGAAUCCGAAAAUUCGGAAAGGAA
- binding result [7]: binds

B10: Stable PS1-5 (ssRNA)
RNA: GGGCUGCCCUCAAGGACCAGGGCAGAAAAGAGGAAAAGAAAAGUGACAGAACACUUAUAAGGAACCACACAAGUGGAAGGAAAAAAGGAAGCUGCAAUAGCGCAAGGAAUCCGAAAAUUCGGAAAGGAA
- binding result [8]: binds

B11: Unstable PS1-5 (ssRNA)
RNA: GGGCUGCCCUCAAGGACCAGGGCAGAAAAGAGGAAAAGAAAAGUGACAGAACACUUAUAAGGAACCACACAAGUAUAAGGAAAAAAGGAAGCUGCAAUAGCGCAAGGAAUCCGAAAAUUCGGAAAGGAA
- binding result [9]: binds

B12: All PS3 (ssRNA)
RNA: GGGCCCCGCAACAAUGCGGGGAAGGAAGGAAGGAAGAAAACGUACAAACGUUUUAAGGAACAACGCAACAAUGCGUUGAAGGAAGGAAGGAAGGGGCGUACAAACGCCCCAAGGAAUUUUGCAACAAUGCAAAAAAGGAA
- binding result [10]: binds
